Legend:
TIM3 on primary T cells = assay: In vivo administration of N-CEACAM1-Fc, then in vitro stimulation of lymph node cells with anti-CD3 or SEB (FIGS. 10A-10B); set-up: species or system mouse; conditions: 100 μg intraperitoneally, lymph nodes at 10 days
CD4+T-cells = assay: In vitro re-stimulation of CD4+ T-cells from SEB-immunized mice, TIM3 expression by FACS; format: cell-based, mouse
CD4+Vβ8+ T cells = conditions: SEB treatment in presence or absence of fusion protein
TIM3 = molecular target: T1, TIM3 (Mus musculus, UniProt Q8VIM0); assay: Staining of primary T cells with mouse CEACAM1 N-domain Fc fusion protein with or without blocking antibody (FIG. 9); format: binding; conditions: primary naive T cells of TIM3 Tg mice
T1 construct: expressed in transfected cells; also crossed to Ceacam1-/-), with the transgene under the human CD2 promoter
T1 sequence (Q8VIM0 20-281): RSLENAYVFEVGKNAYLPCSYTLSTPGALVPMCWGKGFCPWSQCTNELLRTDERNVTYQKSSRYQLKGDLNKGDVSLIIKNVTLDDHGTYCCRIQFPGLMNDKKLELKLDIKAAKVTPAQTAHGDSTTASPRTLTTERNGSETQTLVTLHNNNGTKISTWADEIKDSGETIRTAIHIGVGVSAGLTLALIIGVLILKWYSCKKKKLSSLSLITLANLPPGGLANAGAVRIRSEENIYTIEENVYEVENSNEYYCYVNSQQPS
Excerpt: Primary naïve T cells were isolated from B6 (WT) mice with transgenic (Tg) overexpression of TIM3 in T cells, wherein TIM3 is controlled by the human CD2 promotor, and TIM3 Tg mice crossed to […] (knockout) or […]. Primary T cells were stained with a mouse N-domain as an Fc fusion protein in the presence or absence of varying concentrations of a TIM3 specific monoclonal antibody, 2C12, to block binding. *, P<0.05; **, P<0.01

B1: CEACAM1-Fc fusion protein: mouse CEACAM1 N-domain as an Fc fusion protein; Fc for fusion protein is human (protein)
chain: EVTIEAVPPQVAEDNNVLLLVHNLPLALGAFAWYKGNTTAIDKEIARFVPNSNMNFTGQAYSGREIIYSNGSLLFQMITMKDMGVYTLDMTDENYRRTQATVRFHVHP
modifications: left off: a dimerising Fc or GST
notes: mouse CEACAM1 N-domain as an Fc fusion protein; Fc for fusion protein is human
Induction of tolerance (proliferation, interferon gamma production) (TIM3 on primary T cells): induce tolerance
TIM3 up-regulation in response to SEB re-stimulation (Mean Fluorescence) (CD4+T-cells; SEB-responsive T-cells, CEACAM1 ligation with fusion protein, in vitro re-stimulation): 29%
TIM3 expression on gated CD4+ T-cells (CD4+T-cells; in vitro, 0.5 mg/ml, 48 hours): up-regulates TIM-3 in vitro
T cell receptor engagement by SEB (deletion of CD4+Vβ8+ T cells) (CD4+Vβ8+ T cells): not significantly influenced
Binding to TIM3 on primary transgenic T cells (TIM3): binds in trans to TIM3
